Laboratory results published in patent publication US20100016226A1.
Values joined by “and” are separate entries in the source; they are usually repeats but may differ in a detail not shown here. Equal values may be shown once. Where no end group is shown, it is not given here. The star is where a group is joined. 125I = [125I]*

Experiments:
[1] = target: UAG binding sites on human CAC (circulating angiogenic cell) membranes (human); assay: radioligand binding to CAC membranes; binding without minus binding with 100 nM unlabelled UAG
[2] = target: UAG binding sites on human CAC (circulating angiogenic cell) membranes (human); assay: saturation radioligand binding on CAC membranes
[3] = target: UAG binding sites on human CAC (circulating angiogenic cell) membranes (human); assay: radioligand binding to frozen-thawed CAC membranes, two cell preparations
[4] = target: UAG binding sites on human CAC (circulating angiogenic cell) membranes (human); assay: saturation radioligand binding on CAC membranes, Scatchard analysis
[5] = target: UAG binding sites on human CAC (circulating angiogenic cell) membranes (human); assay: radioligand binding to fresh CAC membranes, two cell preparations

specific binding, percent of control value [1]: 75%
radioligand concentration at maximal specific binding [2]: 2 nM
specific binding, frozen-thawed CAC membranes [3]: 0.2 fmol and 0.33 fmol
Bmax (fmol/mg membrane protein) [4]: 10.7
Kd [4]: 0.48 nM
specific binding, fresh CAC membranes [5]: 0.25 fmol and 0.26 fmol
B1: [125I-Tyr4]-UAG (peptide)
peptide: GSSY(125I)LSPEHQRVQQRKESKKPPAKLQPR
